# Measured values published in the supplement of paper PMC7877785.
# ± gives the uncertainty stated by the source.
# Assay: self-splicing fitness, log relative to wild type (ln ratio); higher = more splicing; Tetrahymena group I intron in knt gene, E. coli kanamycin selection, DiMSum; sequences stand for … in CUCUCU…GGAGGGAAAAGUUAUCAGGCAUGCACCUGGUAGCUAGUCUUUAAACCAAUAGAUUGCAUCGGUUUAAAAGGCAAGACCGUCAAAUUGCGGGAAAGGGGUCAACAGCCGUUCAGUACCAAGUCUCAGGGGAAACUUUGAGAUGGCCUUGCAAAGGGUAUGGUAAUAAGCUGACGGACAUGGUCCUAACCACGCAGCCAAGUCCUAAGUCAACAGAUCUUCUGUUGAUAUGGAUGCAGUUCACAGACUAAAUGUCGGUCGGGGAAGAUGUAUUCUUCUCAUAAGAUAUAGUCGGACCUCUCCUUAAUGGGAGCUAGCGGAUGAAGUGAUGCAACACUGGAGCCGCUGGGAACUAAUUUGUAUGCGAAAGUAUAUUGAUUAGUUUUGGAGUACUCGUGGUCG
# Outline: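 Fitness was computed with DiMSum as the error-weighted combination of replicate fold changes, kanamycin versus none, each normalised to wild type. The library randomised all eight intron nucleotides of the P1ex region, with the intron placed in the knt kanamycin-resistance gene on pET-22b(+) in E. coli BL21(DE3). Six replicate transformations were grown overnight at 37°C or 30°C on LB agar with or without 25 μg/mL kanamycin, plus 100 μg/mL carbenicillin, 50 μM IPTG and 0.2% rhamnose. Pooled colonies were amplicon-sequenced on an Illumina HiSeq 2500.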
Sequence,self-splicing fitness (ln) (30 °C),self-splicing fitness (ln) (37 °C)
AUUAAGCAAUAUUACGGUUG,-3.08 ± 0.21,-2.56 ± 0.24
AUUAAGCAAUAUUACGUCAC,,-1.54 ± 0.4
AUUAAGCAAUAUUACGUCUA,-0.611 ± 0.093,0.119 ± 0.091
AUUAAGCAAUAUUACGUGUG,-1.9 ± 0.089,-1.18 ± 0.1
AUUAAGCAAUAUUACGUUCA,-0.728 ± 0.092,-0.399 ± 0.12
AUUAAGCAAUAUUACGUUCG,-0.91 ± 0.1,-0.85 ± 0.14
AUUAAGCAAUAUUACGUUCU,-0.566 ± 0.064,0.034 ± 0.086
AUUCAGCAAUAUUACGAAAA,0.178 ± 0.15,0.575 ± 0.17
AUUCAGCAAUAUUACGAAAG,-1.5 ± 0.11,-1.03 ± 0.13
AUUCAGCAAUAUUACGAACG,-0.206 ± 0.085,0.232 ± 0.13
AUUCAGCAAUAUUACGAGAC,,-0.937 ± 0.18
AUUCAGCAAUAUUACGAGCA,-0.457 ± 0.16,-0.783 ± 0.2
AUUCAGCAAUAUUACGAGGG,-2.42 ± 0.26,-1.42 ± 0.34
AUUCAGCAAUAUUACGAGGU,-3.61 ± 0.17,-1.72 ± 0.14
AUUCAGCAAUAUUACGAGUU,-2.76 ± 0.16,-1.39 ± 0.13
AUUCAGCAAUAUUACGCAGC,-1.82 ± 0.38,-1.15 ± 0.26
AUUCAGCAAUAUUACGCCUG,-1.95 ± 0.12,-0.706 ± 0.19
AUUCAGCAAUAUUACGCUGG,-3.36 ± 0.17,-2.98 ± 0.26
AUUCAGCAAUAUUACGGAUA,-1.72 ± 0.17,-1.17 ± 0.14
AUUCAGCAAUAUUACGGAUC,-3.24 ± 0.11,-2.53 ± 0.18

Sequence,self-splicing fitness (ln) (30 °C),self-splicing fitness (ln) (37 °C)
AUUCAGCAAUAUUACGGCUC,-0.786 ± 0.081,-0.0849 ± 0.1
AUUCAGCAAUAUUACGGGUA,-1.89 ± 0.11,-1.31 ± 0.12
AUUCAGCAAUAUUACGGUAU,-0.934 ± 0.065,-0.155 ± 0.073
AUUCAGCAAUAUUACGGUCG,-0.857 ± 0.085,-0.679 ± 0.14
AUUCAGCAAUAUUACGGUUA,-0.544 ± 0.089,-0.305 ± 0.08
AUUCAGCAAUAUUACGUGGA,-2.72 ± 0.18,-1.79 ± 0.12
AUUCAGCAAUAUUACGUGGC,-3.76 ± 0.14,-2.21 ± 0.16
AUUCAGCAAUAUUACGUGUU,-2.68 ± 0.1,-1.39 ± 0.089
AUUCAGCAAUAUUACGUUAU,-1.22 ± 0.079,0.0898 ± 0.095
AUUGAGCAAUAUUACGAAUU,-2.85 ± 0.23,-1.71 ± 0.24
AUUGAGCAAUAUUACGACAA,-2.28 ± 0.29,-1.31 ± 0.23
AUUGAGCAAUAUUACGACUC,-2.94 ± 0.29,-1.59 ± 0.27
AUUGAGCAAUAUUACGAGUG,-2.69 ± 0.28,-2.76 ± 0.38
AUUGAGCAAUAUUACGAUAU,-2.76 ± 0.18,-1.04 ± 0.17
AUUGAGCAAUAUUACGCAGC,-1.85 ± 0.29,-2.7 ± 0.38
AUUGAGCAAUAUUACGCCCA,-2.25 ± 0.25,-1.39 ± 0.39
AUUGAGCAAUAUUACGCCUA,-1.99 ± 0.2,-1.52 ± 0.2
AUUGAGCAAUAUUACGCCUC,-2.53 ± 0.48,-1.27 ± 0.42
AUUGAGCAAUAUUACGCGGU,-2.19 ± 0.19,
